# In patent US20190321483A1 (Novartis, published 2019):
# B1: J3: Anti-cKIT Fab′3 conjugated to Compound (1), DAR 4 (Fab, V domains shown)
# VH: QVQLVQSGAEVKKPGSSVKVSCKASGGTFSSYAISWVRQAPGQGLEWMGTIGPFEGQPRYAQKFQGRVTITADESTSTAYMELSSLRSEDTAVYYCARGGYISDFDVWGQGTLVTVSS
# VL: DIQMTQSPSSLSASVGDRVTITCRASQSISNYLAWYQQKPGKAPKLLIYDASSLQSGVPSRFSGSGSGTDFTLTISSLQPEDFATYYCQQYYYESITFGQGTKVEIKR
# modifications: Compound (1) on native cysteine LC-214C (EU); Compound (1) on native cysteines HC-220C-226C-229C (EU)
# B2: J16: Anti-cKIT Fab′1 conjugated to Compound (2), DAR 4 (Fab, V domains shown)
# VH: QVQLVQSGAEVKKPGSSVKVSCKASGGTFSSYAISWVRQAPGQGLEWMGVIFPAEGAPGYAQKFQGRVTITADESTSTAYMELSSLRSEDTAVYYCARGGYISDFDVWGQGTLVTVSS
# VL: DIQMTQSPSSLSASVGDRVTITCRASQSISNYLAWYQQKPGKAPKLLIYDASSLQSGVPSRFSGSGSGTDFTLTISSLQPEDFATYYCQQYYYESITFGQGTKVEIKR
# modifications: Compound (2) on native cysteine LC-214C (EU); Compound (2) on native cysteines HC-220C-226C-229C (EU)
# B3: J21: Anti-cKIT Fab′3 conjugated to Compound (5), DAR 4 (Fab, V domains shown)
# VH: QVQLVQSGAEVKKPGSSVKVSCKASGGTFSSYAISWVRQAPGQGLEWMGTIGPFEGQPRYAQKFQGRVTITADESTSTAYMELSSLRSEDTAVYYCARGGYISDFDVWGQGTLVTVSS
# VL: DIQMTQSPSSLSASVGDRVTITCRASQSISNYLAWYQQKPGKAPKLLIYDASSLQSGVPSRFSGSGSGTDFTLTISSLQPEDFATYYCQQYYYESITFGQGTKVEIKR
# modifications: Compound (5) on native cysteine LC-214C (EU); Compound (5) on native cysteines HC-220C-226C-229C (EU)
# B4: J22: Anti-cKIT Fab′3 conjugated to Compound (2), DAR 4 (Fab, V domains shown)
# VH: QVQLVQSGAEVKKPGSSVKVSCKASGGTFSSYAISWVRQAPGQGLEWMGTIGPFEGQPRYAQKFQGRVTITADESTSTAYMELSSLRSEDTAVYYCARGGYISDFDVWGQGTLVTVSS
# VL: DIQMTQSPSSLSASVGDRVTITCRASQSISNYLAWYQQKPGKAPKLLIYDASSLQSGVPSRFSGSGSGTDFTLTISSLQPEDFATYYCQQYYYESITFGQGTKVEIKR
# modifications: Compound (2) on native cysteine LC-214C (EU); Compound (2) on native cysteines HC-220C-226C-229C (EU)
# B5: J19: Anti-cKIT Fab′2 conjugated to Compound (2), DAR 4 (Fab, V domains shown)
# VH: QVQLVQSGAEVKKPGSSVKVSCKASGGTFSSHALSWVRQAPGQGLEWMGGIIPSFGTADYAQKFQGRVTITADESTSTAYMELSSLRSEDTAVYYCARGLYDFDYWGQGTLVTVSS
# VL: DIQMTQSPSSLSASVGDRVTITCRASQDISQDLAWYQQKPGKAPKLLIYDASSLQSGVPSRFSGSGSGTDFTLTISSLQPEDFAVYYCQQYYYLPSTFGQGTKVEIKR
# modifications: Compound (2) on native cysteine LC-214C (EU); Compound (2) on native cysteines HC-220C-226C-229C (EU)
# B6: J17: Anti-cKIT Fab′2 conjugated to mc-MMAF, DAR 4 (Fab, V domains shown)
# VH: QVQLVQSGAEVKKPGSSVKVSCKASGGTFSSHALSWVRQAPGQGLEWMGGIIPSFGTADYAQKFQGRVTITADESTSTAYMELSSLRSEDTAVYYCARGLYDFDYWGQGTLVTVSS
# VL: DIQMTQSPSSLSASVGDRVTITCRASQDISQDLAWYQQKPGKAPKLLIYDASSLQSGVPSRFSGSGSGTDFTLTISSLQPEDFAVYYCQQYYYLPSTFGQGTKVEIKR
# modifications: mc-MMAF on native cysteine LC-214C (EU); mc-MMAF on native cysteines HC-220C-226C-229C (EU)
# B7: J15: Anti-cKIT Fab′1 conjugated to Compound (5), DAR 4 (Fab, V domains shown)
# VH: QVQLVQSGAEVKKPGSSVKVSCKASGGTFSSYAISWVRQAPGQGLEWMGVIFPAEGAPGYAQKFQGRVTITADESTSTAYMELSSLRSEDTAVYYCARGGYISDFDVWGQGTLVTVSS
# VL: DIQMTQSPSSLSASVGDRVTITCRASQSISNYLAWYQQKPGKAPKLLIYDASSLQSGVPSRFSGSGSGTDFTLTISSLQPEDFATYYCQQYYYESITFGQGTKVEIKR
# modifications: Compound (5) on native cysteine LC-214C (EU); Compound (5) on native cysteines HC-220C-226C-229C (EU)
# B8: J14: Anti-cKIT Fab′1 conjugated to mc-MMAF, DAR 4 (Fab, V domains shown)
# VH: QVQLVQSGAEVKKPGSSVKVSCKASGGTFSSYAISWVRQAPGQGLEWMGVIFPAEGAPGYAQKFQGRVTITADESTSTAYMELSSLRSEDTAVYYCARGGYISDFDVWGQGTLVTVSS
# VL: DIQMTQSPSSLSASVGDRVTITCRASQSISNYLAWYQQKPGKAPKLLIYDASSLQSGVPSRFSGSGSGTDFTLTISSLQPEDFATYYCQQYYYESITFGQGTKVEIKR
# modifications: mc-MMAF on native cysteine LC-214C (EU); mc-MMAF on native cysteines HC-220C-226C-229C (EU)
# B9: J18: Anti-cKIT Fab′2 conjugated to Compound (5), DAR 4 (Fab, V domains shown)
# VH: QVQLVQSGAEVKKPGSSVKVSCKASGGTFSSHALSWVRQAPGQGLEWMGGIIPSFGTADYAQKFQGRVTITADESTSTAYMELSSLRSEDTAVYYCARGLYDFDYWGQGTLVTVSS
# VL: DIQMTQSPSSLSASVGDRVTITCRASQDISQDLAWYQQKPGKAPKLLIYDASSLQSGVPSRFSGSGSGTDFTLTISSLQPEDFAVYYCQQYYYLPSTFGQGTKVEIKR
# modifications: Compound (5) on native cysteine LC-214C (EU); Compound (5) on native cysteines HC-220C-226C-229C (EU)
# B10: J2: Anti-cKIT Fab′2 conjugated to Compound (1), DAR 4 (Fab, V domains shown)
# VH: QVQLVQSGAEVKKPGSSVKVSCKASGGTFSSHALSWVRQAPGQGLEWMGGIIPSFGTADYAQKFQGRVTITADESTSTAYMELSSLRSEDTAVYYCARGLYDFDYWGQGTLVTVSS
# VL: DIQMTQSPSSLSASVGDRVTITCRASQDISQDLAWYQQKPGKAPKLLIYDASSLQSGVPSRFSGSGSGTDFTLTISSLQPEDFAVYYCQQYYYLPSTFGQGTKVEIKR
# modifications: Compound (1) on native cysteine LC-214C (EU); Compound (1) on native cysteines HC-220C-226C-229C (EU)
# B11: J20: Anti-cKIT Fab′3 conjugated to mc-MMAF, DAR 4 (Fab, V domains shown)
# VH: QVQLVQSGAEVKKPGSSVKVSCKASGGTFSSYAISWVRQAPGQGLEWMGTIGPFEGQPRYAQKFQGRVTITADESTSTAYMELSSLRSEDTAVYYCARGGYISDFDVWGQGTLVTVSS
# VL: DIQMTQSPSSLSASVGDRVTITCRASQSISNYLAWYQQKPGKAPKLLIYDASSLQSGVPSRFSGSGSGTDFTLTISSLQPEDFATYYCQQYYYESITFGQGTKVEIKR
# modifications: mc-MMAF on native cysteine LC-214C (EU); mc-MMAF on native cysteines HC-220C-226C-229C (EU)
# B12: J1: Anti-cKIT Fab′1 conjugated to Compound (1), DAR 4 (Fab, V domains shown)
# VH: QVQLVQSGAEVKKPGSSVKVSCKASGGTFSSYAISWVRQAPGQGLEWMGVIFPAEGAPGYAQKFQGRVTITADESTSTAYMELSSLRSEDTAVYYCARGGYISDFDVWGQGTLVTVSS
# VL: DIQMTQSPSSLSASVGDRVTITCRASQSISNYLAWYQQKPGKAPKLLIYDASSLQSGVPSRFSGSGSGTDFTLTISSLQPEDFATYYCQQYYYESITFGQGTKVEIKR
# modifications: Compound (1) on native cysteine LC-214C (EU); Compound (1) on native cysteines HC-220C-226C-229C (EU)
# Target: Human cKIT on human mobilized peripheral blood hematopoietic stem cells (human, UniProt P10721 26-976)
# Test: cell-based or functional assay
Binder,"EC50 (ng/ml), cell viability after 7 days, Human CD34+ cells [ng/mL]","EC50 (ng/ml), cell viability after 7 days, Human CD90+ cells [ng/mL]","EC50 (ng/ml), cell viability after 7 days, Human total nucleated cells [ng/mL]"
B1,8,12,45
B2,7,9,6
B3,88,22,154
B4,10,17,8
B5,16,23,14
B6,16,37,12
B7,5,1,6
B8,10,11,7
B9,11,3,15
B10,11,16,58
B11,25,72,20
B12,11,13,48
